# Test results taken from paper PMC10014292.
# B1: TRPC6: T221A (protein)
# parent chain: MSQSPAFGPRRGSSPRGAAGAAARRNESQDYLLMDSELGEDGCPQAPLPCYGYYPCFRGSDNRLAHRRQTVLREKGRRLANRGPAYMFSDRSTSLSIEEERFLDAAEYGNIPVVRKMLEECHSLNVNCVDYMGQNALQLAVANEHLEITELLLKKENLSRVGDALLLAISKGYVRIVEAILSHPAFAEGKRLATSPSQSELQQDDFYAYDEDGTRFSHDVTPIILAAHCQEYEIVHTLLRKGARIERPHDYFCKCNDCNQKQKHDSFSHSRSRINAYKGLASPAYLSLSSEDPVMTALELSNELAVLANIEKEFKNDYKKLSMQCKDFVVGLLDLCRNTEEVEAILNGDVETLQSGDHGRPNLSRLKLAIKYEVKKFVAHPNCQQQLLSIWYENLSGLRQQTMAVKFLVVLAVAIGLPFLALIYWFAPCSKMGKIMRGPFMKFVAHAASFTIFLGLLVMNAADRFEGTKLLPNETSTDNAKQLFRMKTSCFSWMEMLIISWVIGMIWAECKEIWTQGPKEYLFELWNMLDFGMLAIFAASFIARFMAFWHASKAQSIIDANDTLKDLTKVTLGDNVKYYNLARIKWDPSDPQIISEGLYAIAVVLSFSRIAYILPANESFGPLQISLGRTVKDIFKFMVIFIMVFVAFMIGMFNLYSYYIGAKQNEAFTTVEESFKTLFWAIFGLSEVKSVVINYNHKFIENIGYVLYGVYNVTMVIVLLNMLIAMINSSFQEIEDDADVEWKFARAKLWFSYFEEGRTLPVPFNLVPSPKSLFYLLLKLKKWISELFQGHKKGFQEDAEMNKINEEKKLGILGSHEDLSKLSLDKKQVGHNKQPSIRSSEDFHLNSFNNPPRQYQKIMKRLIKRYVLQAQIDKESDEVNEGELKEIKQDISSLRYELLEEKSQNTEDLAELIRELGEKLSMEPNQEETNR
# What was measured:
# Details in all cases: glycan lost; control: wild type
# [1] = whole-cell patch clamp, HEK-293T
# [2] = NFAT promoter activity with TRPC6 antagonist
# [3] = Nppa, Rcan1 qPCR ± angiotensin II, rat cardiomyocytes
# [4] = cycloheximide chase, rate of YFP fluorescence decline
protein,measurement,setting,value
B1,"other: channel current, other: percent increase in current",[1],increases
same,other: antagonist sensitivity,[2],no change
same,other: response to angiotensin II,[3],no change
same,degradation_or_half_life,[4],decreases
